Several values for one entry are separate records, joined by “and”; a condition that tells them apart may be missing. Equal values may be shown once.
Assays:
[1] = target: Tri1 protein of the varicella-zoster virus heterotriplex (varicella-zoster virus (strain vOka)); assay: cryo-EM structure; VZV A-capsids purified from infected MRC-5 cells, in 1x PBS; single-particle reconstruction with block-based (localized) reconstruction of an asymmetric unit, 3.7 Å
[2] = target: major capsid protein (MCP) of varicella-zoster virus (varicella-zoster virus (strain vOka)) (UniProt P09245); assay: as above

Substance | stoichiometry N (Tri2 per Tri1) [1] | stoichiometry N [2]
Tri2 protein of the varicella-zoster virus heterotriplex (natural protein) | 2 | –
major capsid protein (MCP) of varicella-zoster virus (from UniProt P09245 1-1396) (natural protein) | – | 5 and 6

— article PMC7508878
